Five molecules from publication PMC3936768, “Transcription factor abundance controlled by an auto-regulatory mechanism involving a transcription start site switch” can be followed below.

For this data set, the target named is T1, ZNF143 DBD (UniProt P52747 237-440).
T1 sequence: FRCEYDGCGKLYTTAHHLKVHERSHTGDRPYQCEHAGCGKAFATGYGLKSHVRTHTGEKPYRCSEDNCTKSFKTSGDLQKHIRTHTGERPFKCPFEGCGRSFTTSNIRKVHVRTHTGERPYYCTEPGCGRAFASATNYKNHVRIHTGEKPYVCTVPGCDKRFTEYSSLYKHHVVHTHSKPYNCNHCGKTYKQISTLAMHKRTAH
The experiment in a line: EMSA; 20 fmol 32P probe; 4% native PAGE in 0.25x TBE; competition: 20 min preincubation at room temperature, 10 uL; buffer as in ref 33 (not given); competitor excess 200-fold (Methods) or 1000-fold (Fig 2E legend). The settings on record: protein: recombinant, blunt.

B1: mut SBS/B- (dsDNA)
DNA 1: CGATTACCATGCACCAGGACAGG
DNA 2: CCTGTCCTGGTGCATGGTAATCG
For the molecule B1, where the note is “label: 5' 32P”, the binding result was “no binding”.

B2: SBS/B (dsDNA)
DNA 1: TGTCCTGGTGCATGGTGGTCGGA
DNA 2: TCCGACCACCATGCACCAGGACA
In the case of B2, the binding result is given as “binds”.

B3: mut SBS/C- (dsDNA)
DNA 1: GTTTTTAAAACGTGTGCATTATTCTCC
DNA 2: GGAGAATAATGCACACGTTTTAAAAAC
With B3, the binding result (label: 5' 32P) is “no binding”.

B4: SBS/A (dsDNA)
DNA 1: CAGCCCAATGGAAGCTGGGGGCG
DNA 2: CGCCCCCAGCTTCCATTGGGCTG
With B4, where the note is “label: 5' 32P”, the binding result was “no binding”.

B5: SBS/C (dsDNA)
DNA 1: TTTTACCCAGTGTGCATTATTCTCC
DNA 2: GGAGAATAATGCACACTGGGTAAAA
With B5, the binding result is “binds”.
